± gives the half width of the 95% confidence interval.
Experiments:
[1] = folding stability dG unfold from trypsin proteolysis; higher = more stable
Procedure, shortened: (§1)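 Designed mini-proteins with no cysteine and under 80 residues were kept only if AlphaFold2 dimer inter-PAE was above 15. In a PA-tagged cDNA display construct, they were digested with trypsin and chymotrypsin and then sequenced. K50 was inferred by Bayesian fitting of counts, and unfolding free energy was derived per protease or combined against a sequence-predicted unfolded-state K50 and a shared folded-state K50.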

[2] = folding stability dG unfold from chymotrypsin proteolysis; higher = more stable
Procedure, shortened: as §1

[3] = folding stability dG unfold (combined trypsin and chymotrypsin); higher = more stable
Procedure, shortened: as §1

Sequence	folding stability dG unfold [1]	folding stability dG unfold [2]	folding stability dG unfold [3]
SAGMKKVIELTIPVTGPEEVEELVAKLEEEEPAVPVERRPDPRLGAVRVVVEKKFPDSIVYITLTAAASAGG [r19_262_JUSTAS]	0.784 ± 0.042 kcal/mol	0.496 ± 0.071 kcal/mol	0.677 ± 0.065 kcal/mol
SAGFWIRIDPKNPRIYISGMPPGMIELIAENAGAPDVTPVKPGRPWWDARDNHPDPDAVIPIPPENMMSAGG [r19_270_TrROS]	0.319 ± 0.16 kcal/mol	-0.39 ± 0.39 kcal/mol	0.0233 ± 0.24 kcal/mol
SAGGFKIEIEKNPEPDGIVIVIEYDMPPKGIKDFIEELFGPNPKDVTTEEHPNGRTEVTFRIPPGAPSAGGS [r16_605_TrROS]	-0.426 ± 0.43 kcal/mol	0.33 ± 0.34 kcal/mol	0.268 ± 0.3 kcal/mol
SLPPSLTYTLKLSHPDGSTVTATVFPGGSLRVTVYAPGGVKVAESEYPVDDLEALMKALGIKEVLSMELASA [r9_1107_JUSTAS]	1.93 ± 0.082 kcal/mol	2.85 ± 0.071 kcal/mol	2.67 ± 0.13 kcal/mol
SAGMAEEAREAARLFASELAPRFGVEAEIPEVRVEFDPETGEVHVHLEVLFRLPEPRTVRRDFVLVLPLSAG [r5_381_TrMRF]	1.3 ± 0.086 kcal/mol	1.92 ± 0.13 kcal/mol	1.67 ± 0.1 kcal/mol
SAGGSAGGSKAKIEVLEVFPDYIVYKIETENPVIAVIVPLPNGKVKIFVFNPNGEPIAEFELGSAGGSAGGS [r12_1061_TrMRF]	2.04 ± 0.18 kcal/mol	3.88 ± 0.062 kcal/mol	3.4 ± 0.17 kcal/mol
SAGGSAGGTAEQIREIVEQLFRKRGMEPKKIEIKRVERNGDKVTIEVEWRWDNGRKRPRNIQIPSAGGSAGG [r6_841_TrROS]	0.722 ± 0.17 kcal/mol	1.66 ± 0.12 kcal/mol	1.18 ± 0.17 kcal/mol
SAGGMLPGLRPLLLAVLVPAEEPLEPEQVRELAEELRRELEEKGYGFAFRAIELEDFQLIIVDVVDPFSAGG [r13_442_TrMRF]	2.54 ± 0.051 kcal/mol	3.429 ± 0.03 kcal/mol	3.11 ± 0.051 kcal/mol
SAGGSAGGSAGGLVLRGPNDSLLFVLYNPDTGLAVFYNPATNQLLVVNLPLPKPKPSELLSAGGSAGGSAGG [r7_383_TrMRF]	2.38 ± 0.089 kcal/mol	2.81 ± 0.049 kcal/mol	2.68 ± 0.15 kcal/mol
SAGGMVVVAVEVDPVTKTATIVYAAPVPNLGGYVPIPAAAVAKRLTEELGLPDVKEVTVAQAAGDVPISAGG [r13_327_TrMRF]	0.428 ± 0.057 kcal/mol	0.607 ± 0.1 kcal/mol	0.578 ± 0.12 kcal/mol
SAGGSAGGSAGSMTLSTSTSTTPTSLTTTTTTTTYDPTTGTTTTTSTTTTTALPAAPPSSTASAGGSAGGSA [r18_16_JUSTAS]	0.0685 ± 0.064 kcal/mol	1.64 ± 0.03 kcal/mol	1.37 ± 0.13 kcal/mol
SAGGSADVKITEVHNPHRNPNGRPFFMVRIKWPDNGTHTIMMNPNDLDDLLAQLPPNWKIDEIHPISAGGSA [r15_339_TrROS]	1.39 ± 0.025 kcal/mol	1.68 ± 0.055 kcal/mol	1.57 ± 0.049 kcal/mol
SKTYTAEEIKKLFPNIKKVEVKDGKVRLTVENENGEKFEIEITFEAPKPEPEVEEEVEKKKEEELSEEDLSA [r9_427_TrROS_Hall]	1.28 ± 0.061 kcal/mol	2.62 ± 0.14 kcal/mol	1.65 ± 0.31 kcal/mol
SAGGSAGGRVRIHYNPEDGYIMITFPRNNPEEIAKEILEAFNIKDVNIQVDPEEGWVSIMIKIDSAGGSAGG [r6_662_TrROS]	2.95 ± 0.25 kcal/mol	1.26 ± 0.1 kcal/mol	2.17 ± 0.41 kcal/mol
SAGGSAGGSAGSYTVTPITLKLPDGTEVDAVLTTDPAGNVTLTLTGDSPLSTLTFPASTLSAGGSAGGSAGG [r11_327_JUSTAS]	0.119 ± 0.026 kcal/mol	1.6 ± 0.039 kcal/mol	1.18 ± 0.049 kcal/mol
SAGMKITYKRPDGTPAEPIPEEEIKKLAEEKAKELYPNKPDATVTVTITIKTNNNEPLIITMTVTIKNESAG [r5_526_JUSTAS]	0.982 ± 0.054 kcal/mol	1.13 ± 0.18 kcal/mol	1 ± 0.38 kcal/mol
SAGGSAGGSAMTVLVMEIKIELRVNEDGSLELRMEIEIKPVEPITLEELAEKLGLSKEELLSAGGSAGGSAG [r3_338_TrROS_Hall]	3.28 ± 0.12 kcal/mol	2.91 ± 0.085 kcal/mol	3.03 ± 0.14 kcal/mol
SAGGMELVSRKRLSTSADGSVTYLYEYYDPKTGKRYTLVVTVKTPDGKIKPKVFTADSEEEAKKIALESAGG [r13_26_JUSTAS]	1.1 ± 0.06 kcal/mol	1.56 ± 0.16 kcal/mol	1.34 ± 0.11 kcal/mol
SAGGPKVIVTDPNGVKHEFENLSIPELLSSLPKNGTPILKIEIPLFNPELGGEEPLELEFIFPPELFSAGGS [r16_806_TrMRF]	0.321 ± 0.017 kcal/mol	-0.417 ± 0.19 kcal/mol	0.107 ± 0.083 kcal/mol
SMGSTTVTVELEFEVEDPSVFPPDTTVDVPEEVIEKLRAEGYTVTEITTTVEPTPSGRVRVRVTMTVRVDSA [r9_465_JUSTAS]	2.95 ± 0.05 kcal/mol	2.77 ± 0.049 kcal/mol	2.93 ± 0.095 kcal/mol
SAGGSAEEELLKAIKEALEKAKEGETVELEITLEDGSTLRITFDAENGKITVTLPNGEKLELTIEPSAGGSA [r15_977_TrROS_Hall]	3.18 ± 0.19 kcal/mol	4.37 ± 0.18 kcal/mol	4.23 ± 0.16 kcal/mol

Sequence	folding stability dG unfold [1]	folding stability dG unfold [2]	folding stability dG unfold [3]
SAGGSAGGMIYKFTYPKGEPPLLFTYDPSTGKVTVTEPKTGKPLGTVDLSLEEAVKAGARIEPVSAGGSAGG [r6_832_JUSTAS]	0.44 ± 0.073 kcal/mol	0.96 ± 0.085 kcal/mol	0.84 ± 0.057 kcal/mol
SAGGGPVTVTVTFKPPSTGLTSTVTLPFPNVSSYEEAKERAEELAKEAGGPIETITFTDPATGKAHPLSAGG [r13_771_JUSTAS]	0.449 ± 0.068 kcal/mol	0.213 ± 0.27 kcal/mol	0.646 ± 0.23 kcal/mol
SAGGSAMTLRLELRVRLQVFNEDGELLGERELDIEIELEGEPLEVPPPPEIDPEEAARLLGLDPDGSAGGSA [r15_572_TrMRF]	0.909 ± 0.098 kcal/mol	2.84 ± 0.039 kcal/mol	2.37 ± 0.25 kcal/mol
SAGGSKIIITYDKEKNVITIKVEKNGKLLEITIEVKSKEDLEEALKKAEELAKELEKKGYKVEIIPSAGGSA [r2_118_TrROS_Hall]	1.95 ± 0.12 kcal/mol	2.31 ± 0.07 kcal/mol	2.15 ± 0.2 kcal/mol
SAGGSAGPPKPGKIELEFEDPSGGKKYKVDIYIYPNNEVKTKALNPDGTPIPEEEIKKILKKLGLKSAGGSA [r15_872_JUSTAS]	0.37 ± 0.082 kcal/mol	1.75 ± 0.12 kcal/mol	1.29 ± 0.26 kcal/mol
SAGGSAGGKLKINNEEIGPDKSFPLKKGKEIKVYKDYVKVFVIDPKTNKKKEYTIKLEDLKKLFSAGGSAGG [r6_940_TrMRF]	0.437 ± 0.073 kcal/mol	1.39 ± 0.2 kcal/mol	1.05 ± 0.18 kcal/mol
SAGGSAGGMRLEIVVEMSEEEARELAEALRRELEERGYRVRVEVRRLPDGRLVVRVEIEPAPEPSAGGSAGG [r6_597_TrROS_Hall]	4.47 ± 0.19 kcal/mol	4.49 ± 0.093 kcal/mol	4.63 ± 0.17 kcal/mol
SAGMVEITVEVKEDGTVIVTIPATSPEEALEVAEEVARELAKQFGAEHTEFVIEPVPDDTLVLLVPIKKSAG [r5_772_TrMRF]	0.389 ± 0.065 kcal/mol	1.26 ± 0.11 kcal/mol	0.874 ± 0.23 kcal/mol
SAGGSAGGSAAPDEKLKITVELVDPNNGKRIEEKEYPNMTIEEVKKEAEEKGLKIVKIEVSSAGGSAGGSAG [r3_423_JUSTAS]	-0.382 ± 0.083 kcal/mol	-0.116 ± 0.061 kcal/mol	-0.173 ± 0.29 kcal/mol
SAGGSAGGSAGGKKPKVKVIKLTLTVTKLTEKDGKLTLEKKTITLTAVIDPETGKIHLLSAGGSAGGSAGGS [r10_533_TrROS_Hall]	3.2 ± 0.14 kcal/mol	3.5 ± 0.089 kcal/mol	3.5 ± 0.16 kcal/mol
SAGMKEVTVSKDELEEILKKLPPNKTYKVTLYNPNGPTYEFTVTVENDTIKINEGPPNKSENLKVTLVSSAG [r5_85_JUSTAS]	1.53 ± 0.036 kcal/mol	2.32 ± 0.024 kcal/mol	2 ± 0.051 kcal/mol
SAGGSAGGSAGPEVIEIKNPKTGKTYRIVRNKDGKLLIYNEATGKVAVFKDGKIELVPAPSAGGSAGGSAGG [r17_476_TrROS_Hall]	1.14 ± 0.07 kcal/mol	0.825 ± 0.21 kcal/mol	1.05 ± 0.16 kcal/mol
SGVQLEWKYDPEDNKREIKISIFFPADDPEKKKQFAKVIAKEIENMFQEQGWKPKKIDIEVMRMPPGQPLSA [r9_117_TrROS]	0.889 ± 0.049 kcal/mol	1.2 ± 0.063 kcal/mol	1.02 ± 0.067 kcal/mol
SAGGSAGGSALEIPFEVVDEKDFLLEGDYIVRVAELKNGLRALAIYDPKTGKVLVIVSPGGSAGGSAGGSAG [r3_438_TrMRF]	1.92 ± 0.15 kcal/mol	2.07 ± 0.057 kcal/mol	2.17 ± 0.17 kcal/mol
SAGGSAGGMLLVRIKVRRPDGSEETIVLEFESEEELKAAIEELLPPGWEVVEIELVPLGEELPESAGGSAGG [r6_872_TrROS_Hall]	4.55 ± 0.17 kcal/mol	4.402 ± 0.042 kcal/mol	4.49 ± 0.11 kcal/mol
SAGGSAGGSTIRIRVKTREEAERLAKLIPGARITYDEETKEFYLEIRLPPAPPPSLEELKAALSAGGSAGGS [r20_191_TrROS_Hall]	3.62 ± 0.062 kcal/mol	1.96 ± 0.038 kcal/mol	2.84 ± 0.058 kcal/mol
SAGGSAGGSAKKKKKKKKYKPKPVKIFKIKLKLKLEKTKDGLKLKIEEIEIEEIATLEKGLSAGGSAGGSAG [r3_397_TrROS_Hall]	1.88 ± 0.12 kcal/mol	2.72 ± 0.1 kcal/mol	2.43 ± 0.44 kcal/mol
SAGGSAMLVVADDPEVVRELVEPLFPDGEPVLVVGATEEEAAKLVEELKKKGLPFKVVVVRRPDRPSAGGSA [r15_567_TrMRF]	0.932 ± 0.048 kcal/mol	-0.039 ± 0.23 kcal/mol	0.657 ± 0.14 kcal/mol
SAGGSAGGSAMVVEVPVEFPDDVKVYSVEEDPELGVLLVKVKFPDREVLAVIPGDKLFIADASAGGSAGGSA [r18_212_TrMRF]	0.43 ± 0.016 kcal/mol	0.325 ± 0.089 kcal/mol	0.422 ± 0.052 kcal/mol
SAGNAKEIAKKIKIRIREFFAERFGFPDVEIDSVTIKDVDPKNGRVRVNITWWWPNGRPWKHEIEIPVDSAG [r5_20_TrROS]	2.38 ± 0.048 kcal/mol	2.43 ± 0.072 kcal/mol	2.43 ± 0.11 kcal/mol
SAGGRKAKVTVTLPDGTVVELELEFKTEEEFEKAVKEKLEELFGKSIEEVPFVEKKVTVYDPEKGSKSESAG [r5_482_JUSTAS]	1.13 ± 0.13 kcal/mol	2.18 ± 0.12 kcal/mol	2.04 ± 0.31 kcal/mol

Reference: the supplement of paper PMC12764529
